This passage reports abundance fitness results from the Human Domainome abundance scans (Beltran et al. 2025).

± gives the uncertainty stated by the source.

B1: POU domain, class 3, transcription factor 2, residues 356 to 411; numbered along this chain, P20265 (parent)
chain: KKRTSIEVSVKGALESHFLKCPKPSAQEITSLADSLQLEKEVVRVWFCNRRQKEKR

Variants of B1 are the subject of this data set. The data set can be described thus: abundance fitness (aPCA) (normalised: wild type 0, dead -1); higher = more abundant; growth selection in yeast, the domain comes from the species named. The settings on record: Homo sapiens.
Turning to KKRTSIEVSVKGALESHFLKCPKPSAQEITSLADSLQLEKEHVRVWFCNRRQKEKR [V42H], the abundance fitness was 0.081 ± 0.22.

As to KKRTSIEVSVKGALESHFLKCPKPSAQEITSLADSLQLEKEYVRVWFCNRRQKEKR [V42Y], the abundance fitness worked out at 0.05 ± 0.2.

For KKRTSIEVSVKGALESHFLKCPKPSAQEITSLADSLQLEKESVRVWFCNRRQKEKR [V42S], the abundance fitness is -0.179 ± 0.11.

KKRTSIEVSVKGALESHFLKCPKPSAQEITSLADSLQLEKEWVRVWFCNRRQKEKR [V42W]: the abundance fitness was -0.147 ± 0.094. Under KKRTSIEVSVKGALESHFLKCPKPSAQEITSLADSLQLEKECVRVWFCNRRQKEKR [V42C] stands -0.01 ± 0.2. With KKRTSIEVSVKGALESHFLKCPKPSAQEITSLADSLQLEKEDVRVWFCNRRQKEKR [V42D] the figure was 0.051 ± 0.19; with KKRTSIEVSVKGALESHFLKCPKPSAQEITSLADSLQLEKEKVRVWFCNRRQKEKR [V42K], -0.116 ± 0.14. Under KKRTSIEVSVKGALESHFLKCPKPSAQEITSLADSLQLEKEAVRVWFCNRRQKEKR [V42A] stands -0.089 ± 0.083; under KKRTSIEVSVKGALESHFLKCPKPSAQEITSLADSLQLEKEIVRVWFCNRRQKEKR [V42I], -0.204 ± 0.11. For KKRTSIEVSVKGALESHFLKCPKPSAQEITSLADSLQLEKENVRVWFCNRRQKEKR [V42N], the abundance fitness is -0.309 ± 0.19. Under KKRTSIEVSVKGALESHFLKCPKPSAQEITSLADSLQLEKEEVRVWFCNRRQKEKR [V42E] stands 0.01 ± 0.096; under KKRTSIEVSVKGALESHFLKCPKPSAQEITSLADSLQLEKEPVRVWFCNRRQKEKR [V42P], -0.869 ± 0.23. Under KKRTSIEVSVKGALESHFLKCPKPSAQEITSLADSLQLEKEFVRVWFCNRRQKEKR [V42F] stands -0.042 ± 0.15. In the case of KKRTSIEVSVKGALESHFLKCPKPSAQEITSLADSLQLEKERVRVWFCNRRQKEKR [V42R], the abundance fitness is -0.363 ± 0.079.

Regarding KKRTSIEVSVKGALESHFLKCPKPSAQEITSLADSLQLEKETVRVWFCNRRQKEKR [V42T], the abundance fitness is -0.02 ± 0.12. As for KKRTSIEVSVKGALESHFLKCPKPSAQEITSLADSLQLEKEMVRVWFCNRRQKEKR [V42M], the abundance fitness is -0.299 ± 0.11.

For the variant KKRTSIEVSVKGALESHFLKCPKPSAQEITSLADSLQLEKEGVRVWFCNRRQKEKR [V42G], the abundance fitness was -0.453 ± 0.08. Under KKRTSIEVSVKGALESHFLKCPKPSAQEITSLADSLQLEKEQVRVWFCNRRQKEKR [V42Q] stands -0.136 ± 0.16. Consider KKRTSIEVSVKGALESHFLKCPKPSAQEITSLADSLQLFKEVVRVWFCNRRQKEKR [E39F], for which the abundance fitness was -1.01 ± 0.26. Under KKRTSIEVSVKGALESHFLKCPKPSAQEITSLADSLQLIKEVVRVWFCNRRQKEKR [E39I] stands -0.982 ± 0.37; under KKRTSIEVSVKGALESHFLKCPKPSAQEITSLADSLQLYKEVVRVWFCNRRQKEKR [E39Y], -0.653 ± 0.16; under KKRTSIEVSVKGALESHFLKCPKPSAQEITSLADSLQLKKEVVRVWFCNRRQKEKR [E39K], -0.121 ± 0.13. As to KKRTSIEVSVKGALESHFLKCPKPSAQEITSLADSLQLWKEVVRVWFCNRRQKEKR [E39W], the abundance fitness is -0.943 ± 0.17.

As to KKRTSIEVSVKGALESHFLKCPKPSAQEITSLADSLQLGKEVVRVWFCNRRQKEKR [E39G], the abundance fitness is -0.324 ± 0.088. For the variant KKRTSIEVSVKGALESHFLKCPKPSAQEITSLADSLQLPKEVVRVWFCNRRQKEKR [E39P], the abundance fitness was -0.244 ± 0.13. On to KKRTSIEVSVKGALESHFLKCPKPSAQEITSLADSLQLSKEVVRVWFCNRRQKEKR [E39S], for which the abundance fitness is -0.039 ± 0.076. Under KKRTSIEVSVKGALESHFLKCPKPSAQEITSLADSLQLLKEVVRVWFCNRRQKEKR [E39L] stands -0.847 ± 0.11; under KKRTSIEVSVKGALESHFLKCPKPSAQEITSLADSLQLRKEVVRVWFCNRRQKEKR [E39R], -0.404 ± 0.083. Under KKRTSIEVSVKGALESHFLKCPKPSAQEITSLADSLQLTKEVVRVWFCNRRQKEKR [E39T] stands -0.159 ± 0.12; under KKRTSIEVSVKGALESHFLKCPKPSAQEITSLADSLQLHKEVVRVWFCNRRQKEKR [E39H], 0.036 ± 0.12. Take KKRTSIEVSVKGALESHFLKCPKPSAQEITSLADSLQLNKEVVRVWFCNRRQKEKR [E39N]: the abundance fitness was -0.217 ± 0.13.

Take KKRTSIEVSVKGALESHFLKCPKPSAQEITSLADSLQLMKEVVRVWFCNRRQKEKR [E39M]: the abundance fitness is -0.941 ± 0.16. In the case of KKRTSIEVSVKGALESHFLKCPKPSAQEITSLADSLQLEKEVVHVWFCNRRQKEKR [R44H], the abundance fitness is -0.127 ± 0.11. Under KKRTSIEVSVKGALESHFLKCPKPSAQEITSLADSLQLEKEVVGVWFCNRRQKEKR [R44G] stands -0.188 ± 0.1; under KKRTSIEVSVKGALESHFLKCPKPSAQEITSLADSLQLEKEVVAVWFCNRRQKEKR [R44A], -0.027 ± 0.083. As to KKRTSIEVSVKGALESHFLKCPKPSAQEITSLADSLQLEKEVVEVWFCNRRQKEKR [R44E], the abundance fitness came to 0.027 ± 0.12.

For the variant KKRTSIEVSVKGALESHFLKCPKPSAQEITSLADSLQLEKEVVLVWFCNRRQKEKR [R44L], the abundance fitness is -0.407 ± 0.068. With KKRTSIEVSVKGALESHFLKCPKPSAQEITSLADSLQLEKEVVMVWFCNRRQKEKR [R44M] the figure was -0.214 ± 0.11; with KKRTSIEVSVKGALESHFLKCPKPSAQEITSLADSLQLEKEVVFVWFCNRRQKEKR [R44F], -0.481 ± 0.089. Turning to KKRTSIEVSVKGALESHFLKCPKPSAQEITSLADSLQLEKEVVIVWFCNRRQKEKR [R44I], the abundance fitness was -0.272 ± 0.11.

Take KKRTSIEVSVKGALESHFLKCPKPSAQEITSLADSLQLEKEVVCVWFCNRRQKEKR [R44C]: the abundance fitness is -0.495 ± 0.1.

Turning to KKRTSIEVSVKGALESHFLKCPKPSAQEITSLADSLQLEKEVVDVWFCNRRQKEKR [R44D], the abundance fitness was determined as 0.008 ± 0.11.

For the variant KKRTSIEVSVKGALESHFLKCPKPSAQEITSLADSLQLEKEVERVWFCNRRQKEKR [V43E], the abundance fitness was -1.01 ± 0.17. For the variant KKRTSIEVSVKGALESHFLKCPKPSAQEITSLADSLQLEKEVDRVWFCNRRQKEKR [V43D], the abundance fitness was -0.958 ± 0.19. With KKRTSIEVSVKGALESHFLKCPKPSAQEITSLADSLQLEKEVSRVWFCNRRQKEKR [V43S] the figure was -0.985 ± 0.14; with KKRTSIEVSVKGALESHFLKCPKPSAQEITSLADSLQLEKEVCRVWFCNRRQKEKR [V43C], -0.547 ± 0.15.

Regarding KKRTSIEVSVKGALESHFLKCPKPSAQEITSLADSLQLEKEVKRVWFCNRRQKEKR [V43K], the abundance fitness is -0.909 ± 0.3.
